The results in this text go back to paper PMC9436803.

Assay [1] deals with Human IgG1 Fc (residues 216–447) (human). As to the kind of experiment: SPR; Biacore T200; IgG1 Fc amine-coupled to a CM5 chip (1 μg/ml); CD16a 0.01-20.48 μM flowed at 10 μl/min; 20 mM MOPS, 100 mM sodium chloride, 1 μM bovine serum albumin, 0.05% P20, pH 7.4; dissociation constants from equilibrium responses; at least five measurements. On the technique in general: In SPR one partner is held on a chip, and binding of the other changes the refractive index at the surface.

The target is the same in assay [2]. Description: SPR; Biacore T200; IgG1 Fc amine-coupled to a CM5 chip (0.33 μg/ml); CD16a 0.04-5.12 μM flowed at 60 μl/min, contact 30 s, dissociation 250 s; 20 mM MOPS, 100 mM sodium chloride, 0.05% P20, pH 7.4, no bovine serum albumin; two-state kinetic model.

A word on the Kd: it is the equilibrium constant for the complex coming apart. A high value points to lower affinity. Consider “Fc γ receptor IIIa/CD16a F158 allotype with truncated (1)GlcNAc N-glycans (from UniProt P08637 17-254)”, for which the Kd in assay [1] was determined as 126 nM. In assay [2], this substance registered a Kd of 52 nM; a ka1 (two-state model, major event) of 1.1e+06 M⁻¹ s⁻¹; a ka2 (two-state model, minor event) of 0.0018 s⁻¹; a kd1 (two-state model, major event) of 0.079 s⁻¹. In addition, the kd2 (two-state model, minor event) in assay [2] was 0.005 s⁻¹.

Consider “CD16a V158 S164A with complex-type N-glycans, lacking the N162 glycan (receptor)”, for which the Kd in assay [1] is 230 nM. Further, in assay [2], the Kd was found to be 109 nM; the ka1 (two-state model, major event) came out at 1.4e+06 M⁻¹ s⁻¹; the ka2 (two-state model, minor event) came out at 0.0014 s⁻¹; the kd1 (two-state model, major event) came to 0.18 s⁻¹. Further, the kd2 (two-state model, minor event) in assay [2] came out at 0.0078 s⁻¹.

On to “CD16a F158 S164A, lacking the N162 glycan (receptor)”, for which the Kd in assay [1] was determined as 1470 nM.

In the case of “Fc γ receptor IIIa/CD16a F158 allotype with oligomannose (Man5GlcNAc2) N-glycans (from UniProt P08637 17-254)”, the Kd in assay [1] worked out at 1070 nM. The Kd values of the last two substances are within 1.5-fold of each other.

The substance “Fc γ receptor IIIa/CD16a V158 allotype with oligomannose (Man5GlcNAc2) N-glycans” registered a Kd in assay [1] of 86 nM. In assay [2], this substance showed a Kd of 55 nM; a ka1 (two-state model, major event) of 710000 M⁻¹ s⁻¹; a ka2 (two-state model, minor event) of 0.0049 s⁻¹; a kd1 (two-state model, major event) of 0.071 s⁻¹. Besides, the kd2 (two-state model, minor event) in assay [2] came to 0.006 s⁻¹.

As to “Fc γ receptor IIIa/CD16a V158 allotype with complex-type N-glycans”, the Kd in assay [1] is 270 nM. In assay [2], this substance came in with a Kd of 76 nM; a ka1 (two-state model, major event) of 170000 M⁻¹ s⁻¹; a ka2 (two-state model, minor event) of 0.0061 s⁻¹; a kd1 (two-state model, major event) of 0.025 s⁻¹. Besides, in assay [2], the kd2 (two-state model, minor event) turned out to be 0.0066 s⁻¹.

As for “Fc γ receptor IIIa/CD16a V158 allotype with truncated (1)GlcNAc N-glycans”, the Kd in assay [1] worked out at 22 nM. In addition, in assay [2], the Kd is 9.2 nM; the ka1 (two-state model, major event) was 2.5e+06 M⁻¹ s⁻¹; the ka2 (two-state model, minor event) amounted to 0.0032 s⁻¹; the kd1 (two-state model, major event) amounted to 0.04 s⁻¹. This substance yielded a kd2 (two-state model, minor event) in assay [2] of 0.0047 s⁻¹.
